Measured values: US20220073608A1

Columns and labels:
[1] = target: monkey SEMA4D, full length, on CHO-K1 cells (CHO-K1 cSEMA4D) (monkey); experiment: FACS, CHO-K1 cSEMA4D cells; Ab 2.67 nM
[2] = target: mouse SEMA4D, full length, on CHO-K1 cells (CHO-K1 mSEMA4D) (mouse) (UniProt O09126); experiment: FACS, CHO-K1 mSEMA4D cells; Ab 2.67 nM
[3] = target: T1, human SEMA4D, full length, on CHO-K1 cells (CHO-K1 hSEMA4D) (human) (UniProt Q92854); experiment: FACS, CHO-K1 hSEMA4D cells; Ab 0.107 nM
T1 sequence (looked up): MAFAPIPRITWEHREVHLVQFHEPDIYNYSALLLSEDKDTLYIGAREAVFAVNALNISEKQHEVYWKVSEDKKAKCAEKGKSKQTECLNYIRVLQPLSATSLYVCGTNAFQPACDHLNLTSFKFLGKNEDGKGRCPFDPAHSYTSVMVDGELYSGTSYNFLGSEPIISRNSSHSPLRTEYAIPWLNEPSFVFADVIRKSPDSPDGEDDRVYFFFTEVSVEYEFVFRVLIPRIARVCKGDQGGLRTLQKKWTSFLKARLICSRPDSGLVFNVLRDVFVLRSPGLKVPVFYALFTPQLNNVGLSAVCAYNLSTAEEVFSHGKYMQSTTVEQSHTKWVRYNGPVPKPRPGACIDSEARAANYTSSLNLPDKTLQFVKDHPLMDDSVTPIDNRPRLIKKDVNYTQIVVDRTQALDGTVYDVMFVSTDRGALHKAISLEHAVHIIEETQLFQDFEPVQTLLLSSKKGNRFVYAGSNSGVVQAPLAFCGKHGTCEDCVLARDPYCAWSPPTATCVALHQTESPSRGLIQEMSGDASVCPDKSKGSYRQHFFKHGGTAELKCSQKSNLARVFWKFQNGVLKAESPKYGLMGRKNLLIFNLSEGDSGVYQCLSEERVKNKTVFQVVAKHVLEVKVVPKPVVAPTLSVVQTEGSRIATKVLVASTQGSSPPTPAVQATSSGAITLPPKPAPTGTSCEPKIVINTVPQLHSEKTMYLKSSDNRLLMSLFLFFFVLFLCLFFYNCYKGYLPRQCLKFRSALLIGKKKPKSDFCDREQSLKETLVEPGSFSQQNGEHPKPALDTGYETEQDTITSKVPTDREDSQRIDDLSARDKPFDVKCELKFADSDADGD

[4] = target: monkey SEMA4D, full length, on CHO-K1 cells (CHO-K1 cSEMA4D) (monkey); experiment: FACS, CHO-K1 cSEMA4D cells; Ab 0.107 nM
[5] = target: monkey SEMA4D, full length, on CHO-K1 cells (CHO-K1 cSEMA4D) (monkey); experiment: FACS, CHO-K1 cSEMA4D cells; Ab 0.534 nM
[6] = target: mouse SEMA4D, full length, on CHO-K1 cells (CHO-K1 mSEMA4D) (mouse) (UniProt O09126); experiment: FACS, CHO-K1 mSEMA4D cells; Ab 0.107 nM
[7] = target: T1, human SEMA4D, full length, on CHO-K1 cells (CHO-K1 hSEMA4D) (human); experiment: FACS, CHO-K1 hSEMA4D cells; Ab 0.0213 nM
[8] = target: monkey SEMA4D, full length, on CHO-K1 cells (CHO-K1 cSEMA4D) (monkey); experiment: FACS, CHO-K1 cSEMA4D cells; Ab 0.0213 nM
[9] = target: monkey SEMA4D, full length, on CHO-K1 cells (CHO-K1 cSEMA4D) (monkey); experiment: FACS, CHO-K1 cSEMA4D cells; Ab 0.00427 nM
[10] = target: mouse SEMA4D, full length, on CHO-K1 cells (CHO-K1 mSEMA4D) (mouse) (UniProt O09126); experiment: FACS, CHO-K1 mSEMA4D cells; Ab 0.00427 nM
[11] = target: T1, human SEMA4D, full length, on CHO-K1 cells (CHO-K1 hSEMA4D) (human); experiment: FACS, CHO-K1 hSEMA4D cells; Ab 0.000853 nM
[12] = target: T2, biotinylated hSEMA4D ECD-His (human) (UniProt Q92854); experiment: FACS, blocking of biotinylated hSEMA4D ECD-His binding to 293F hPlexin B1 cells; Ab 333 nM
T2 sequence (chain, biotinylated with Biotin-X-X-NHS at a molar ratio of 8,1; sites not stated): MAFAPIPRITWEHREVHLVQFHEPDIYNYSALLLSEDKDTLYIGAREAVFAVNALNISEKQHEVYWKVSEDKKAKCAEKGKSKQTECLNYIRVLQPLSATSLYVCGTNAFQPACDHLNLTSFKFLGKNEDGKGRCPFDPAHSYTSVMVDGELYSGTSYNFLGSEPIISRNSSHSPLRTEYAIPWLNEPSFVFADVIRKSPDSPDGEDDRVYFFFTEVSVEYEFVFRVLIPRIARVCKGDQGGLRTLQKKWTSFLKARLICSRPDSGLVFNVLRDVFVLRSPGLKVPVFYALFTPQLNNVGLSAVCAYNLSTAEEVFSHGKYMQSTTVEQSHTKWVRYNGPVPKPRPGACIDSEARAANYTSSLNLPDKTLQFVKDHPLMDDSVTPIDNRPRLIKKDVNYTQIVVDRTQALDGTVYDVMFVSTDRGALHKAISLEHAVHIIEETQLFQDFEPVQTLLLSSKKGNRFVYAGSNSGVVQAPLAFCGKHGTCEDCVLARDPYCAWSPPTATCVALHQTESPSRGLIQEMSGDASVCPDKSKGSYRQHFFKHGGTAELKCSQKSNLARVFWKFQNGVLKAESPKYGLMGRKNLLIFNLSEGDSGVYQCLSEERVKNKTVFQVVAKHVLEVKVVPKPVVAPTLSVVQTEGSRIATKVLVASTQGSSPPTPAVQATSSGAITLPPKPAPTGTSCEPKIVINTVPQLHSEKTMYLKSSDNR

[13] = target: T2, biotinylated hSEMA4D ECD-His (human); experiment: FACS, blocking of biotinylated hSEMA4D ECD-His binding to 293F hPlexin B1 cells; Ab 13.3 nM
[14] = target: T2, biotinylated hSEMA4D ECD-His (human); experiment: FACS, blocking of biotinylated hSEMA4D ECD-His binding to 293F hPlexin B1 cells; Ab 66.7 nM
[15] = target: T2, biotinylated hSEMA4D ECD-His (human); experiment: FACS, blocking of biotinylated hSEMA4D ECD-His binding to 293F hPlexin B1 cells; Ab 0.0213 nM

Row | Substance | MFI [1] | MFI [2] | MFI [3] | MFI [4] | MFI [5] | MFI [6] | MFI [7] | MFI [8] | MFI [9] | MFI [10] | MFI [11] | MFI (residual ligand binding) [12] | MFI (residual ligand binding) [13] | MFI (residual ligand binding) [14] | MFI (residual ligand binding) [15]
1 | Human IgG control (antibody) | 33.3 | 23.9 | 38 | 31.6 | 32.1 | 24.1 | 38.2 | 31.6 | 31.6 | 23.7 | 37.2 | 307 | 331 | 321 | 359
2 | Mouse IgG control (antibody) | 37.8 | 30.4 | 36.1 | 25.4 | 24.9 | 29.8 | 35.8 | 23.1 | 22.5 | 30.1 | 35.5 | 464 | 474 | 471 | 468
